Square brackets hold non-standard residues; d marks the D form. pGlu = O=C1CC[C@@H](C(=O)O)N1
Assays:
[1] = biological target: T1, pE3-16 (Pyr-…-biotin) (human); experiment: SPR (BIACORE 2000), antibody captured, peptide injected
T1 construct: also called pE3-16B
T1 peptide: [pGlu]FRHDSGYEVHHQK-biotin

[2] = biological target: T2, Aβ1-40 (UniProt P05067 672-711); experiment: as above
T2 construct: domain: Aβ1-40; The numbers 1-40 count on the Aβ peptide, not on the APP precursor
T2 sequence (P05067 672-711 limits assumed): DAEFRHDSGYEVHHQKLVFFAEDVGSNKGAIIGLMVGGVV

B1: Antibody II (R17L) (antibody, human IgG1, kappa, V domains shown)
VH: QVQLVQSGAEVKKPGSSVKVSCKASGYTFTRYYINWVRQAPGQGLEWMGWINPGSGNTKYNEKFKGRVTITADESTSTAYMELSSLRSEDTAVYYCAREGTTVYWGQGTTVTVSS
VL: DIVMTQTPLSLSVTPGQPASISCKSSQSLLYSRGKTYLNWLLQKPGQSPQLLIYAVSKLDSGVPDRFSGSGSGTDFTLKISRVEAEDVGVYYCVQGTHYPFTFGQGTKLEIKR
notes: Human engineered anti-N3pGlu Aβ monoclonal antibody
B1: binds [1]; no binding [2].

B2: Antibody VII (mE8c) (antibody, mouse IgG2a, kappa, V domains shown)
VH: EVQLLESGPELVKPGASVKISCKASGYTFTDYYINWVKQRPGQGLEWIGWINPGSGNTKYNEKFKGKATLTVDTSSSTAYMQLSSLTSEDSAVYFCTREGETVYWGQGTTLTVSS
VL: NIVLTQTPLTLSVTIGQPASISCKSSQSLLYSRGKTYLNWLLQRPGQSPKRLIYAVSKLDSGVPDRFIGSGSGTDFTLKISRVEAEDLGVYYCVQGTHYPFTFGSGTKLEIKR
notes: Mouse IgG2a isotype of the mE8 clone; also called mE8c - IgG2a; parental mouse antibody
B2: binds [1]; no binding [2].

B3: Antibody I (B12L) (antibody, human IgG1, kappa, V domains shown)
VH: QVQLVQSGAEVKKPGSSVKVSCKASGYDFTRYYINWVRQAPGQGLEWMGWINPGSGNTKYNEKFKGRVTITADESTSTAYMELSSLRSEDTAVYYCAREGITVYWGQGTTVTVSS
VL: DIVMTQTPLSLSVTPGQPASISCKSSQSLLYSRGKTYLNWLLQKPGQSPQLLIYAVSKLDSGVPDRFSGSGSGTDFTLKISRVEAEDVGVYYCVQGTHYPFTFGQGTKLEIKR
notes: as for B1
B3: binds [1]; no binding [2].

Reference: patent US20130142806A1 (Eli Lilly, published 2013)
